The source of these data is US20220289861A1.

For test [1], the target named is truncated human CD163 ECD SRCR domain 1-5 fragment with C-terminus histidine tag (human) (UniProt Q86VB7). The test is described as follows: ratio of EC50 on huCD163 SRCR 1-5 to EC50 on huCD163 ECD.
The target of test [2] is recombinant murine CD163 (R&D Systems, No. 7435-CD-050) (murine) (UniProt Q2VLH6). The test is described as follows: ELISA on plate-coated recombinant murine CD163 (5 ug/mL).
Chain of recombinant murine CD163 (R&D Systems, No. 7435-CD-050) (murine) (Q2VLH6 39-1045 limits assumed): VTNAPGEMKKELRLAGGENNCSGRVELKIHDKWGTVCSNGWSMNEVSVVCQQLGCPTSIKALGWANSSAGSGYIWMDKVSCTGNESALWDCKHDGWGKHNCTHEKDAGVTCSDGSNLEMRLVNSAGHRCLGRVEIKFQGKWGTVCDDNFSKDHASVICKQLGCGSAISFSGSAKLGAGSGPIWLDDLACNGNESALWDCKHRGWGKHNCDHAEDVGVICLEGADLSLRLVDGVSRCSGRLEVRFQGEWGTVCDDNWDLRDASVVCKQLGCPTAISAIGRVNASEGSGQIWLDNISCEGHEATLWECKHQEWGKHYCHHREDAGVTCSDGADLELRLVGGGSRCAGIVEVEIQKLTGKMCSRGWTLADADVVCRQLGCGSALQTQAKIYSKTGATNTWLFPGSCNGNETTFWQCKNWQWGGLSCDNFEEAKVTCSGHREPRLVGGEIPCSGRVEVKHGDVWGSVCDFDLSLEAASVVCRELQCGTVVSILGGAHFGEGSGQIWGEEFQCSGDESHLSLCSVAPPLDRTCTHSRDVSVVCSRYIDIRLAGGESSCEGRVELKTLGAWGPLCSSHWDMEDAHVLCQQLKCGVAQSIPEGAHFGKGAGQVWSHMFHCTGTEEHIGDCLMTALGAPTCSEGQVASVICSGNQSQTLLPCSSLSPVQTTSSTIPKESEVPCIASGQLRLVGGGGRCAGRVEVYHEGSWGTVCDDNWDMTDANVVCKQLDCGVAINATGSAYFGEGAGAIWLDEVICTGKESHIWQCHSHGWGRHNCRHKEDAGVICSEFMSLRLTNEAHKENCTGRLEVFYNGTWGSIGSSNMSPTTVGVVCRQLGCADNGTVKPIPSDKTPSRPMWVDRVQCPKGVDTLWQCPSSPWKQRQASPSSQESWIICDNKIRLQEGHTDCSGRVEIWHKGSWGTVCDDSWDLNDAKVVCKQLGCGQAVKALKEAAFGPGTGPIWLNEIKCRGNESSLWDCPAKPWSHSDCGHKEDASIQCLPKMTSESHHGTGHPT

Chain of truncated human CD163 ECD SRCR domain 1-5 fragment with C-terminus histidine tag (human) (Q86VB7 42-578 limits assumed): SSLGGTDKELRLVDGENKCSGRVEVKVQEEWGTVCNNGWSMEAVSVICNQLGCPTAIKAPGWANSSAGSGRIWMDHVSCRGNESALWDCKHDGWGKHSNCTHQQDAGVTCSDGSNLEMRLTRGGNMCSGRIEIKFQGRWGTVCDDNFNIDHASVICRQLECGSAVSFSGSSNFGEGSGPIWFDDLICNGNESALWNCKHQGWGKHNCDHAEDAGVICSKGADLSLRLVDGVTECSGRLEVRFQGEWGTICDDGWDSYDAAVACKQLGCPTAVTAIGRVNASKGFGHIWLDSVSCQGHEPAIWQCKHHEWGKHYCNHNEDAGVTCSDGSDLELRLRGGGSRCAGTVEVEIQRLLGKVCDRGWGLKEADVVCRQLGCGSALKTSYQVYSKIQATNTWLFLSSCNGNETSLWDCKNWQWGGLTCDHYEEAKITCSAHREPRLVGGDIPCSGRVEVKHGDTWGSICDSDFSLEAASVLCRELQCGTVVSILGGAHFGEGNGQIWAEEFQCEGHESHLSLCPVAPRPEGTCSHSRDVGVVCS

Take 215927 (antibody): in test [1], the Ratio SRCR 1-5/ECD stood at 1.17. In the case of EDHu-1 (antibody), the Ratio SRCR 1-5/ECD in test [1] amounted to 0.96. As to “commercially available rat anti-muCD163 antibody (Thermo Fisher Scientific #14-1631-82)”, the EC50 (read off the curve) in test [2] came to 0.03 nM.
